Assay [1] addresses Dengue serotype 3 VLP (The Native Antigen Company), wild type (dengue virus serotype 3). Description: competition ELISA on VLP, unlabelled 4G2 at 10 micrograms per ml against biotinylated 4G2.
Assay [2] concerns the target wild type dengue serotype 2 exodomain, HEK293-produced (The Native Antigen Company DENV2-ENV) (dengue virus serotype 2). Description: ELISA, His-tagged exodomain captured by anti-His-tag antibody, 4G2 titrated (FIG. 5a). Background: ELISA stands for enzyme-linked immunosorbent assay.
Assay [3] deals with wild type dengue serotype 4 exodomain (The Native Antigen Company DENV4-ENV) (dengue virus serotype 4). The description is as above.

Regarding “fusion-loop antibody 4G2 (The Native Antigen Company AbFLAVENV-4G2)”, the % inhibition – broadly, the relative decrease from the control value, in per cent – in assay [1] was 80%. Also, the low antibody concentration still giving a signal above background in assay [2] and in assay [3] was 250 pg/mL in each case.
